For data set [1], the target named is human FcRn (Homo sapiens, UniProt P55899). In words: Biacore analysis of Z variants fused to PP013-Z03638. Format: binding. The arrangement: made in house; host or cells: human SKOV-3 cells, lentivirally transduced, secreted; purified on immobilized human IgG. The settings on record: pH 6.0; 40, 160 and 640 nM. The method, then:
Expressed and purified Z variants fused to PP013-Z03638 were assayed against human FcRn at pH 6.0 essentially as described for the kinetic analysis in Example 3. The Z variants and the negative control Z03638-PP013 were injected at 40 nM, 160 nM and 640 nM during 1 minute followed by dissociation for 2.5 minutes and equilibration for 1 minute. Kinetic constants and affinities were determined for the Z variants using the BiaEvaluation software.

Data set [2] is described as follows: Pharmacokinetic study in mice. Format: in vivo, mouse. The settings on record: male NMRI mice; i.v. 92 nmol/kg; serum; Z variants as fusions to PP013-Z03638. The method, then:
Z11947, Z11946 and Z11948 fused to PP013-Z03638 were administered intravenously (i.v.) to male NMRI mice (Charles River, Germany) at a dose of 92 nmol/kg body weight. Sera from groups of three mice were obtained at 0.08, 6, 18, 78, 120, 168 and 240 hours. The concentration of respective Z variant was determined by ELISA.
Half-area 96-well ELISA plates were coated at 4° C. overnight with 50 μl/well of an Z specific goat antibody (produced in-house) diluted to 4 μg/ml in coating buffer (50 mM sodium carbonate, pH 9.6). The antibody solution was poured off and the wells were blocked with 100 μl of PBSC for 1.5 h at RT. The sera were diluted in PBSC plus 1% mouse serum (matrix) from 1:100 to 1:51,200 in a two-fold dilution series in a dilutions plate. […] Bound Z variants were detected with 50 μl/well of rabbit anti-PP013 Ig (produced in-house) diluted to 4 μg/ml in PBSC. […] After 15 minutes of development, the absorbance was measured at 450 nm using a multi-well plate reader (Victor^3). The absorbance values were analyzed using GraphPad Prism 5 to determine the concentrations (cubic-spline curve fit) and area under curve (AUC). […] The resulting curves followed a two compartment model and the terminal half-life was calculated as In2 divided by the slope based on the last three time points.

Chain of human FcRn (P55899 24-290): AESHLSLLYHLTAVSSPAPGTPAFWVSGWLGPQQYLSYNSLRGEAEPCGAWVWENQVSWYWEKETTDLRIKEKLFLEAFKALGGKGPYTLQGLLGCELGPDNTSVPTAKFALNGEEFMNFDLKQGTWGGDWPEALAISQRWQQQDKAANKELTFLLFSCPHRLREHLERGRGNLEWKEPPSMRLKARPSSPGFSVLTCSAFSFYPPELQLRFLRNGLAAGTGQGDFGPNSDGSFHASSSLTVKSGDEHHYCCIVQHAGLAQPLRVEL
Chain of human FcRn (P61769 21-119 partner): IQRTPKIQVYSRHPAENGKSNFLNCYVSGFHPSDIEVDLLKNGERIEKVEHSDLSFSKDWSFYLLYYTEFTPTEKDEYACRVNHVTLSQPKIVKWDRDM

Consider “Z03638-PP013: negative control molecule [Z03638]-GAP(G4S)4TS-[PP013]; Taq polymerase binding Z variant fused to albumin binding polypeptide”, for which the “binding to FcRn” value in data set [1] is recorded as “negative against FcRn”. Also, the terminal half-life result in data set [2] is reported as “approximately 43 hours”.
